The results in this text go back to the nanobody polyreactivity screen of Harvey et al. (2022).

This data set is described as follows: yeast display, Sf9 membrane polyspecificity reagent, FACS + sequencing; frameworks hold sequencing errors. The method, boiled down: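 A nanobody's polyreactivity label depends on the gate it was sorted from. Yeast display cells were stained with 10% biotinylated, detergent-solubilized Sf9 membrane reagent for 1 hour at 4 °C, enriched on streptavidin microbeads and sorted by FACS. The low and high (top ~1%) gates were set on anti-HA fluorescence for expression and streptavidin fluorescence for reagent binding.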
In the case of “QVQLVESGGGLVQAGGSLRLSCAASGLIFRKNAMGWYRQAPGKEMELVAAISSSDSSTYADSVKGRCTISRDNAKNTVYLQMNSLKPEDTAVYYCAAASYNWLDWVTREYWGQGTQVTVSS”, the “polyreactivity (PSR sort gate)” value is reported as “low polyreactivity”.

Take “QVQLVESGGGLVQAGGSLRLSCAASGLIFRPYAIGWYRQAPGKERELVAGITSGGNTDYADSVKGRFTISRDNAKNTVYLQMNSLKPEDTAVYYCADYFIYGYWGQGTQVTVSS”: the “polyreactivity (PSR sort gate)” value was “low polyreactivity”.

As to “QVQLVESGGGLVQAGGSLRLSCAASGLIFRPYAMGWYRQAPGKERELFAGISFRGDSTYYADSVKGRFTISRDNAKNTVYLQMNCLKPEDTAVYYCDADVYIYWPPDKLLGYDYWGQGSQVTVSS”, the “polyreactivity (PSR sort gate)” value is “low polyreactivity”.

Regarding “QVQLVESGGGLVQAGGSLRLSCAASGLIFRRYAMGRNRQAHGKERELVAAISRSGGSTYYADSVKGRFTISRDNEKNTVYLQMNSLKPEDTAVYYCAADYAPVFWGDYKYDYWGQGTQVTVSS”, the “polyreactivity (PSR sort gate)” value was “high polyreactivity”.

Take “QVQLVESGGGLVQAGGSLRLSCAASGLIFRVYAMGWYRQAPGKERELVAAISISDGTTNYADSVKGRFTISRDNAKNTVYLQMNSLKPEDTAVYYCAADYDFYDFSYQSWSEENYWGQGTQVTVSS”: the “polyreactivity (PSR sort gate)” value is given as “low polyreactivity”.

Regarding “QVQLVESGGGLVQAGGSLRLSCAASGLIFRVYTMGWYRQAPGKERELVSAITGRGGRTYYADSVKGRFTISRDNAKNTVYLQMNSLKPEDTAVYYCATGGRYQQAAYTGYNYWGQGTQVTVSS”, the “polyreactivity (PSR sort gate)” value is given as “high polyreactivity”.

With “QVQLVESGGGLVQAGGSLRLSCAASGLIFRWYAMAWYRQAPGKERELVAAISRRGGTTNYADSVKGRFTISRDNAKNTVYLQMNTLKPEDTAVYYCAADYQSVGGAEYDYWGQGTQVTVSS”, the “polyreactivity (PSR sort gate)” value is recorded as “high polyreactivity”.

Take “QVQLVESGGGLVQAGGSLRLSCAASGLIFRYNTMGWYRQAPGKERELVAAITSSGVRTYYADSVKGRFTISRDNAKNTVYLQMNSLKPEDTAVYYCAAEGKSYPWPWYFDYWGQGTQVTVSS”: the “polyreactivity (PSR sort gate)” value is “high polyreactivity”.

In the case of “QVQLVESGGGLVQAGGSLRLSCAASGLIFRYYDMGWYRQAPGKERELVAAISSSGTRTYYADSVKGRFTISRENPKNTVYLQMNSLKPEDTSVYYCATENQNPTGGYWGQGTQVTVSS”, the “polyreactivity (PSR sort gate)” value was “high polyreactivity”.

On to “QVQLVESGGGLVQAGGSLRLSCAASGLIFSPYAMGWYRQAPGKVREFVAAITSRGGTYYADSVKGRFTISRDNAKNTVYLQMNSLKPEDTAVYYCAARNNRYPLYNYWGQGTQVTVSS”, for which the “polyreactivity (PSR sort gate)” value is listed as “low polyreactivity”.

Consider “QVQLVESGGGLVQAGGSLRLSCAASGLIFSRYTMGWNRQAPGKERELVAAISRSGTNTYYADSVKGRFTISRDNAKNTVYLQMNSLKPEDTAVYYCAARGYYRDYDSWGQGTQVTVSS”, for which the “polyreactivity (PSR sort gate)” value is “high polyreactivity”.

Consider “QVQLVESGGGLVQAGGSLRLSCAASGLIFSRYTMGWYRQAPGKERELVAAISLGGGRTYYADSVKGRFTISRDNAKNTVYLQMNSLKPEDTAVYYCAATRYYSSDYWGQGTQVTVSS”, for which the “polyreactivity (PSR sort gate)” value was “low polyreactivity”.

As to “QVQLVESGGGLVQAGGSLRLSCAASGLIFSSYAMGWYRQAPGKERELVAAISGSGGSTYYADSEKGRFTISRDNAKNTVYLQMNSLKPEDTAVYYCAAELDDYWVVSEDSSGQGTQVTVSS”, the “polyreactivity (PSR sort gate)” value is “low polyreactivity”.

“QVQLVESGGGLVQAGGSLRLSCAASGLIFSSYAMGWYRQAPGKERELVAAITGSGGRTYYADSVKGRFTISRDNAKNTVYLQMNSLKPEDTAVYYCAAKYPDPRYYTGYDYWGQGTQVTVSS”: the “polyreactivity (PSR sort gate)” value is “high polyreactivity”.

As for “QVQLVESGGGLVQAGGSLRLSCAASGLIFSTNDMGWYRQAPGKERELVAAITSDVSTYYADSVKGRFTISRDNAKNTVYLQMNSLKPEDTAVYYCAKDDSGYINWRYDYWGQGTQVTVSS”, the “polyreactivity (PSR sort gate)” value was “low polyreactivity”.

On to “QVQLVESGGGLVQAGGSLRLSCAASGLIFSTYAMGWYRQAPGKERELVAAINSGGGNTYYADSVKGRFTISRDNAKNTVYLQMNSLKPEDTAVYYCNAQWRRHPGIWHYGYWGQGTQVTVSS”, for which the “polyreactivity (PSR sort gate)” value is “low polyreactivity”.

With “QVQLVESGGGLVQAGGSLRLSCAASGLIFSWNAMGWYRQAPGKERELVASISYSGGRTYYADSVKGRFTISRDNAKNTVYLQMNSLKPEDTAVYYCAADTNATTDPEMDYWGQGTQVTVSS”, the “polyreactivity (PSR sort gate)” value is listed as “low polyreactivity”.

Turning to “QVQLVESGGGLVQAGGSLRLSCAASGLIFSWYDMGWYRQAPGKERELVDAITTDGDDTYYADSVKGRFTISRDNAKNTVYLQMKSLKPEDTAVYYCDAVSEVAIRYPDRDYDSWGQGTQVTVSS”, the “polyreactivity (PSR sort gate)” value is reported as “low polyreactivity”.

With “QVQLVESGGGLVQAGGSLRLSCAASGLIFSYNAMGWYRQAPGKERELVATISYSGGTTYYADSVKGRFTISRDNAKNTVYLQMNSLKPEDTAVYYCAARTLYSPGRPWKWYNYGRYGYWGQGTQVTVSS”, the “polyreactivity (PSR sort gate)” value was “high polyreactivity”.

As for “QVQLVESGGGLVQAGGSLRLSCAASGLIFSYYAMGWYRQAPGKERELVAAITGSGGSTYYADSVKGRFTISRDNAKNTVYLQMNSLKPEDTAVYYCAAGRYAYTLSRKYDYWGQGTQVTVSS”, the “polyreactivity (PSR sort gate)” value is listed as “high polyreactivity”.

Turning to “QVQLVESGGGLVQAGGSLRLSCAASGLIFSYYAMGWYRQAPGKETELVAGITRSGASTYADSVKGRFTISRDNAKNTVYLQMNSLKPEDTAVYYCAADWHYLGWFWQYSKYDYWGQGTQVTVSS”, the “polyreactivity (PSR sort gate)” value is given as “high polyreactivity”.

For “QVQLVESGGGLVQAGGSLRLSCAASGLIFSYYTMGWYRQAPGKERELVAAISSSAGSTYYADSVKGRCTISRDNAKNTVYCQMNSLKPEDTAVYYCNVRTLVQHHSSYSSRYESWGQGTHVTVSS”, the “polyreactivity (PSR sort gate)” value was “high polyreactivity”.

“QVQLVESGGGLVQAGGSLRLSCAASGLIFTDYVMGWYRQAPGKEREFVAAITGSAGRTYYADSVKGRFTISRDNAKNTVYLQMNSLKPEDTAVYYCNADYWWWHEYDYWGQGTQVTVSS”: the “polyreactivity (PSR sort gate)” value is reported as “high polyreactivity”.

On to “QVQLVESGGGLVQAGGSLRLSCAASGLIFTSNTMGWYRQAPGKERELVAAISRRGGNTYYADSVKGRFTISRDNAKNTVYLQMNSLKPEDTAVYYCAAVAYALGFASKEDYWGQGTQVTVSS”, for which the “polyreactivity (PSR sort gate)” value is listed as “high polyreactivity”.

For “QVQLVESGGGLVQAGGSLRLSCAASGLIFTSYAMGWYRHAPGKERELVAAISTSGGRTYYADSVKGRFTISRDNAKNTVYVQMNSLKAEDTAVYYCYANWRYPYDYWGQGTQVTVSS”, the “polyreactivity (PSR sort gate)” value is recorded as “high polyreactivity”.

Regarding “QVQLVESGGGLVQAGGSLRLSCAASGLIFTSYAMGWYRQAPGKERELVAAISTGGGRTYYADSVKGRFTISRDNAKNTVYLQMNSLKPEDTAVYYCAADSVTYGYDYWGQGTQVTVSS”, the “polyreactivity (PSR sort gate)” value is given as “high polyreactivity”.

With “QVQLVESGGGLVQAGGSLRLSCAASGLIFTSYAMGWYRQAPGKERELVAAISYSGGTTFYADSVKGRFTISRDNAKNTVYLQMNSLKPEDTAVYYCAADSLSTTHDTLGYDRDDYWGQGTQVTVSS”, the “polyreactivity (PSR sort gate)” value is listed as “low polyreactivity”.

Regarding “QVQLVESGGGLVQAGGSLRLSCAASGLIFTTYAMGWYRQAPGKERELVAAISSSGDSTYYADSVKGRFTISRDNAKNTVYLQMNSLKPEDTAVYYCAARYYYRGYEFGYWGQGTQVTVSS”, the “polyreactivity (PSR sort gate)” value was “high polyreactivity”.

Consider “QVQLVESGGGLVQAGGSLRLSCAASGLIFTYYAMGWYRQAPGKERELVAAITSGGTTNYADSVKGRFTISRDNAKNTVYLQMNSLKPEDTAVYYCAADYDTGSERYEYWGQGTQVTVSS”, for which the “polyreactivity (PSR sort gate)” value is recorded as “low polyreactivity”.

As to “QVQLVESGGGLVQAGGSLRLSCAASGLIFVDNAMGWYRQAPGKERELVAAIDSGGRTYYADSVKGRFTISRDNAKNTVYLQMNSLKPEDTAVYYCAAPWRLFCLYDYWGQGTQVSVSS”, the “polyreactivity (PSR sort gate)” value was “low polyreactivity”.

Turning to “QVQLVESGGGLVQAGGSLRLSCAASGLIFVNDMGLYRQAPGKEREFVAAITYSTGSTYYADSVKGRFTISRDNAKNTVYLQMNSLKPEDTAVYYCAKDRSGHGTERDYWGQGTQVTVSS”, the “polyreactivity (PSR sort gate)” value is reported as “low polyreactivity”.

In the case of “QVQLVESGGGLVQAGGSLRLSCAASGLIFVPYAMGWYRQAPGKERELVAAINSGATTYYADSVKGRFTISRDNAKNTVYLQMNSLKPEDTAVYYCAARSRFTESSRYYYWGQGTQVTVSS”, the “polyreactivity (PSR sort gate)” value is “high polyreactivity”.

Turning to “QVQLVESGGGLVQAGGSLRLSCAASGLIFVRYAMGWYRQAPGKERELVAAITTGGRTYYADSVKGRFTISRDNAKNTVYLQMNSLKPEDTAVYYCAAQSFYGIYYGQQDYDYWGQGTQVTVSS”, the “polyreactivity (PSR sort gate)” value is “high polyreactivity”.

As for “QVQLVESGGGLVQAGGSLRLSCAASGLIFVVYAMGWYRPAPGKERELVADISSGGRTSYADSVKGRFTISRDNAKNTVYLQMNSLKPEDTAVYYCNAYPVFNQYYGWRYDYWGQGTQVTVSS”, the “polyreactivity (PSR sort gate)” value is recorded as “low polyreactivity”.

Take “QVQLVESGGGLVQAGGSLRLSCAASGLIFVWYAMGWYRQAPGKERELVAAISWSGGSTYYADSVKGRFTISRDNAKTTVYLQMNSLKPEDTAVYYCATDPFGYSYLLVDYNYWGQGTQVTVSS”: the “polyreactivity (PSR sort gate)” value is listed as “low polyreactivity”.

With “QVQLVESGGGLVQAGGSLRLSCAASGLIFVYYAMGWYRQAPGKERELVAAITSRGGSTYYADSVKGRFTISRDNAKNTVYLQMNSLKPEDTAVYYCAAVYRHGAFPRYGYWGQGTQVTVSS”, the “polyreactivity (PSR sort gate)” value is listed as “high polyreactivity”.

For the sequence “QVQLVESGGGLVQAGGSLRLSCAASGLIFVYYDMGWYRQAPGKERELVAAISSSGSTYYADSVKGRFTISRDNAKNTVYLQMNSLKPEDTAVYYCAAEYLYWPFGSNYWGQGTQVTVSS”, the “polyreactivity (PSR sort gate)” value is “high polyreactivity”.

With “QVQLVESGGGLVQAGGSLRLSCAASGLIFVYYTMGWYRQAPGKERELVARISQSGGTTYYADSVKRRFTISRDNAKNTVYLQLNSLKREDTAVYYCAAVYQLYYSGGRYYYWGQGSQVTVSS”, the “polyreactivity (PSR sort gate)” value is given as “high polyreactivity”.

Turning to “QVQLVESGGGLVQAGGSLRLSCAASGLIFWGYAMGWYRQAPGKERELVAAISSSGGSTYYADSVKGRFTISRDNAKNTVYLQMNSLKPEDTAVYYCNADYTYYPGYDYWGQGTQVTVSS”, the “polyreactivity (PSR sort gate)” value was “low polyreactivity”.

For “QVQLVESGGGLVQAGGSLRLSCAASGLIFWYYAMGWYRQAPGKERELVAVITRSDASTYYADSVKGRFTISRDNAKNTVYVQMNSLKPEDTAVYYCAAYIRYGYSPWGYDYWGQGTQVSVSS”, the “polyreactivity (PSR sort gate)” value is reported as “low polyreactivity”.
